Reference: patent US20240124605A1 (published 2024)
Positions count from the first letter of the chain named. In names and notes the source's numbering stands.

T1: CD123-Fc (Sino Biological) (human, UniProt P26951 19-305)
T1 construct: Bought reagent; not shown: Fc of the bought fusion (detected with anti-human Fc, captured on AHC sensor)
T1 sequence: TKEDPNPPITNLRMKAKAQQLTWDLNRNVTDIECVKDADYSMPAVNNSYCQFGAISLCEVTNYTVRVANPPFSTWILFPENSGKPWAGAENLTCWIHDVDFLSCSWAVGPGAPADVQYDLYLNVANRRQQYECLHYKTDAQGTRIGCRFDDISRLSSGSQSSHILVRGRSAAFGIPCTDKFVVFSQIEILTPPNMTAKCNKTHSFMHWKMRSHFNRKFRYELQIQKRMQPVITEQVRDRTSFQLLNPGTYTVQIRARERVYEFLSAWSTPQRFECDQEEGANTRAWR

T2: CD123 expressed on the surface of cells (OCI-AML2, MOLM13, NALM6-CD123+) (human, UniProt P26951 19-378)
T2 chain: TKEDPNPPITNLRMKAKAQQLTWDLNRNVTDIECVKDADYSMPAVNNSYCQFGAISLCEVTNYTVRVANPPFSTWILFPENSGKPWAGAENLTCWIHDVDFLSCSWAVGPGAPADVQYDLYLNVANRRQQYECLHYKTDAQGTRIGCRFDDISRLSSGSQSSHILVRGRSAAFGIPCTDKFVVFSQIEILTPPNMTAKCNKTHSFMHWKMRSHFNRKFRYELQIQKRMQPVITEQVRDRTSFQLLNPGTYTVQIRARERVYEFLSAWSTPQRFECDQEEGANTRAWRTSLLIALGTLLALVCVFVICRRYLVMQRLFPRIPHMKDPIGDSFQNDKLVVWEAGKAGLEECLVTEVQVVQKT

B1: 5B7L D domain as MBP fusion (designed binder, not shown: large carriers)
chain: MGSWIEFNMRLDAIYERLVALGGSEAELAAFEKEIAAFESELQAYKGKGNPEVEWLRKVAANIRLELQAYRHN
B2: Adapter protein comprising the 6T1D D domain and a P26(Q26-V229) AFP polypeptide (designed binder)
chain: MGSWDEFGRRLYAIEWQLYALGGTEAELAAFEKEIAAFESELQAYKGKGNPEVEKLREIAAVIRENLQAYRHNQESQALAKRSCGLFQKLGEYYLQNAFLVAYTKKAPQLTSSELMAITRKMAATAATCCQLSEDKLLACGEGAADIIIGHLCIRHEMTPVNPGVGQCCTSSYANRRPCFSSLVVDETYVPPAFSDDKFIFHKDLCQAQGVALQTMKQEFLINLVKQKPQITEEQLEAVIADFSGLLEKCCQGQEQEVCFAEEGQKLISKTRAALGV
notes: also called parental D domain (6T1D); not shown: His tag (purified on Ni-Sepharose)
B3: Adapter protein comprising the 4R8U D domain and a P26(Q26-V229) AFP polypeptide (designed binder)
chain: B2 chain with K48E, N50S
notes: also called 6T1D(K48E, N50S); not shown: His tag (purified on Ni-Sepharose)
B4: Adapter protein comprising the 8O3S D domain and a P26(Q26-V229) AFP polypeptide (designed binder)
chain: B2 chain with W16T
notes: also called 6T1D(W16T); not shown: His tag (purified on Ni-Sepharose)
B5: Adapter protein comprising the 4I0K D domain and a P26(Q26-V229) AFP polypeptide (designed binder)
chain: B2 chain with W16S
notes: also called 6T1D(W16S); not shown: His tag (purified on Ni-Sepharose)
B6: Adapter protein comprising the 3F4N D domain and a P26(Q26-V229) AFP polypeptide (designed binder)
chain: B2 chain with N50S
notes: also called 6T1D(N50S); not shown: His tag (purified on Ni-Sepharose)
B7: Adapter protein comprising the 0C8S D domain and a P26(Q26-V229) AFP polypeptide (designed binder)
chain: B2 chain with G8S, K48E, N50S, I59L
notes: also called 0085; 6T1D(G8S, K48E, N50S, I59L); not shown: His tag (purified on Ni-Sepharose)
B8: Adapter protein comprising the 5B1Q D domain and a P26(Q26-V229) AFP polypeptide (designed binder)
chain: B2 chain with G8S, L21Q, K48E, N50S, I59L
notes: also called 6T1D(G8S, L21Q, K48E, N50S, I59L); not shown: His tag (purified on Ni-Sepharose)
B9: 5S5W D domain as MBP fusion (designed binder, not shown: large carriers)
chain: B1 chain with I5S, V19T, K58H, V59S, N62R
B10: Adapter protein comprising the 8W9C D domain and a P26(Q26-V229) AFP polypeptide (designed binder)
chain: B2 chain with Q17R, T24S, E65S
notes: also called wild type; not shown: His tag (purified on Ni-Sepharose)
B11: Adapter protein comprising the 1F9I D domain and a P26(Q26-V229) AFP polypeptide (designed binder)
chain: B2 chain with L21Q, I59L
notes: also called 6T1D(L21Q, I59L); not shown: His tag (purified on Ni-Sepharose)
B12: Adapter protein comprising the 6K4C D domain and a P26(Q26-V229) AFP polypeptide (designed binder)
chain: B2 chain with D5A
notes: also called 6T1D(D5A); not shown: His tag (purified on Ni-Sepharose)
B13: 1J1K D domain as MBP fusion (designed binder, not shown: large carriers; small tags and cut ends)
chain: MGSWDEFSRRLYAIEWRLYALGGSEAELAAFEKEIAAFESELQAYKGKGNPEVEKLREIAAVIRSNLQAYRHN
notes: also called 8W9C (G8S)
B14: 4H2H D domain as MBP fusion (designed binder, not shown: large carriers; small tags and cut ends)
chain: B13 chain with S8G, K48I, K55N
notes: also called 8W9C (K48I, K55N)
B15: 6Z5E D domain as MBP fusion (designed binder, not shown: large carriers; small tags and cut ends)
chain: B13 chain with S8G, N50S
notes: also called 8W9C (N50S)

What follows are binders tested against T1, CD123-Fc (Sino Biological) (assay: ELISA: MBP fusion captured on anti-MBP antibody, detected with CD123-Fc + anti-human Fc HRP).
Experimental: (§1) Parent and mutated variant D domains were expressed as MBP fusions in E. coli (T7 Express, New England Biolabs) by either IPTG (isopropylthio-(3-galactoside) induction for 4 hours at 37° C. in Luria broth containing antibiotics and 0.2% glucose or through auto-induction for 16 hours at 30° C. using MagicMedia (Life Technologies). Post induction, cells were pelleted, washed and resuspended in “leak-out buffer” comprising 200 mM Tris pH 7.5 and 20 mM EDTA. After incubation at 30° C. for 16 hours, supernatant containing MBP fusion proteins were assayed by ELISA for both target binding and expression. Supernatants were added to 96-well Immulon 4HBX microtiter plates coated with anti-MBP polyclonal antibody (Abcam) at 0.0032 ug/ml. Followed by washing, bound MBP fusion proteins were detected either with CD123-Fc (Sino Biological)+anti-human Fc HRP (Abcam) to assess CD123 binding, or with anti-MBP-HRP (New England Biolabs) to assess MBP fusion protein expression.
B1: binds.

Molecular target: T2, CD123 expressed on the surface of cells …
Assay: flow cytometry
In the case of B2, the EC50 is reported as 2.61 µg/mL.
B3 was tested, and the EC50 was 1.9 µg/mL.
B4 was tested, and the EC50 was 4.62 µg/mL.
With B5 the EC50 was 4.26 µg/mL.
Binder B6 has an EC50 of 1.83 µg/mL.
B7 gave an EC50 of 2.44 µg/mL.
Work on B8 yielded an EC50 of 3.22 µg/mL.

These binders were tested against T1, CD123-Fc (Sino Biological) (assay: method not stated in the sentence (BLI of Adapters follows)).
In the case of B8, the “fold enhancement of affinity over that of 6T1D” value is reported as about 10 fold.

The binders below were run against T1, CD123-Fc (Sino Biological) (assay: ELISA of MBP fusions for binding to CD123 (FIG. 3)).
Experimental: as §1
B9: binds.

Each binder was assayed against T1, CD123-Fc (Sino Biological) (assay: BLI (Octet), CD123-Fc captured on AHC sensor, Adapter 500-0.69 nM in solution, global 1:1 fit, 25 C).
Experimental: To assess the kinetics of CD123 binding, Adapter proteins comprising the D domains were analyzed using Bio-Layer Interferometry (BLI). Adapter proteins comprising a CD123-binding D domain and a P26(Q26-V229) AFP polypeptide (SEQ ID NO: 39) were generated through transient transfection of HEK-293 cells, followed by Ni-Sepharose Excel (Cytiva) and SEC chromatography. BLI experiments were performed using an Octet RED386 (Sartorius). All experiments were performed at 25° C. in kinetic buffer (PBS, 0.1% BSA, 0.02% tween 20) under constant 1000 rpm agitation. CD123-Fc (20 nM) was captured on an AHC sensor (Sartorius) for 250 seconds to a loading density of ˜0.8 nm. […] The surface was regenerated by 3 rounds of 10 seconds of 10 mM Glycine pH 1.5, followed by kinetic buffer. The data was analyzed using a global fit with a 1:1 interaction model from Sartorius Octet Analysis studio.
For B2, the Kd was 7.6 nM, the koff was 0.00105 s⁻¹ and the kon was 139000 M⁻¹ s⁻¹.
B3 showed a Kd of 1.2 nM, a koff of 0.000304 s⁻¹ and a kon of 254000 M⁻¹ s⁻¹.
B4 was tested, and the Kd was 28 nM, the koff was 0.00665 s⁻¹ and the kon was 235000 M⁻¹ s⁻¹.
In the case of B5, the Kd is reported as 14 nM, the koff is reported as 0.00252 s⁻¹ and the kon is reported as 177000 M⁻¹ s⁻¹.
B6 gave a Kd of 1.3 nM, a koff of 0.000275 s⁻¹ and a kon of 213000 M⁻¹ s⁻¹.
In the case of B10, the Kd is reported as 5.2 nM, the koff is reported as 0.000924 s⁻¹ and the kon is reported as 177000 M⁻¹ s⁻¹.
For B11, the Kd was 7.6 nM, the koff was 0.000646 s⁻¹ and the kon was 85200 M⁻¹ s⁻¹.
With B7 the Kd was 1 nM, the koff was 0.000151 s⁻¹ and the kon was 146000 M⁻¹ s⁻¹.
B8 showed a Kd of 0.73 nM, a koff of 0.000136 s⁻¹ and a kon of 187000 M⁻¹ s⁻¹.
Binder B12 has a Kd of 18 nM, a koff of 0.00353 s⁻¹ and a kon of 197000 M⁻¹ s⁻¹.

What follows are binders tested against T1, CD123-Fc (Sino Biological) (assay: ELISA of MBP fusions normalized for protein concentration, serial dilution).
Experimental: as §1
B13: binds.
B14: binds.
B15: binds.
